The test addresses WT HCN1 (mHCN1) (mouse (mHCN1)) (UniProt O88704). The test can be described thus: cell-based or functional assay.
UniProt O88704, sequence (O88704 whole entry): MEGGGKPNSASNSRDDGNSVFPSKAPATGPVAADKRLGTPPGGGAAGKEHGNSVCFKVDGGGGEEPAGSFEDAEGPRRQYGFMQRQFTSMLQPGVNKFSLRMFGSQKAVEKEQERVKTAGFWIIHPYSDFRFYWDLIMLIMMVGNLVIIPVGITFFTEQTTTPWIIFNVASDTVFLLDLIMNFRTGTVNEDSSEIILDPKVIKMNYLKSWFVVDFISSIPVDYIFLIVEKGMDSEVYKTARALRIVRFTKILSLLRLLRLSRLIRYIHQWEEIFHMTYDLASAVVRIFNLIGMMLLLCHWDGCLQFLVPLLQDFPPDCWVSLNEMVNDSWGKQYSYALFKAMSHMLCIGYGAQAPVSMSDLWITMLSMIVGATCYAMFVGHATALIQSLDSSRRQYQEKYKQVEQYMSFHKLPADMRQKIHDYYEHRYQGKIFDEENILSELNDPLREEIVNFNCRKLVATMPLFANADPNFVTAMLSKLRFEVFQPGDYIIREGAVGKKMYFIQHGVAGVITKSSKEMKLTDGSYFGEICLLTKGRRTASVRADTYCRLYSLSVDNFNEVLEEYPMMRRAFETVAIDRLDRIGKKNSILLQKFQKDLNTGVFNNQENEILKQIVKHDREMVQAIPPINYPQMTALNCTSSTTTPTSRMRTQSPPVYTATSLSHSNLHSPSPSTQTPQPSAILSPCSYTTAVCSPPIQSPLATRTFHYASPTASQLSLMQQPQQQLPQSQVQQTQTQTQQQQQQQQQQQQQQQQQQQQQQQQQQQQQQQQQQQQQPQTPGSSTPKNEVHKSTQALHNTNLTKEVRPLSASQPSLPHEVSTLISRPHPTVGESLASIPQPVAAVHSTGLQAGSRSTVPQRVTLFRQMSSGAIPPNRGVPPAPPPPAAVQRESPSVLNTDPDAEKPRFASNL

As for “HCN1-AAA (mHCN1 with the triple mutation GYG365-367AAA) (from UniProt O88704 1-910)”, the current reduction, WTHCN1:HCN1-AAA cRNA ratio 1:1 (total 25 ng), Xenopus oocytes (% current reduction) is 91.7; the current reduction, WTHCN1:HCN1-AAA cRNA ratio 1:2 (total 25 ng), Xenopus oocytes (% current reduction) was found to be 97.9; the current reduction, WTHCN1:HCN1-AAA cRNA ratio 2:1 (total 25 ng), Xenopus oocytes (% current reduction) is 78.7; the current reduction, WTHCN1:HCN1-AAA cRNA ratio 3:1 (total 25 ng), Xenopus oocytes (% current reduction) is 68.3. The current reduction, WTHCN1:HCN1-AAA cRNA ratio 4:1 (total 25 ng), Xenopus oocytes (% current reduction) came out at 55.2; the whole-cell current at -140 mV in Xenopus oocytes, co-injection of 50 nL WT HCN1 and 50 nL HCN1-AAA cRNA against WT HCN1 alone (current reduction) stood at 85.2%.
